This is an account of results in publication PMC11785096.

In the experiment the target is another dynein heavy chain (unidentified second DHC of dynein-X) (Lytechinus variegatus (endogenous in sperm)). The experiment is described as follows: cryo-EM structure.

For the substance “DNAHX (dynein heavy chain, XP_041462850) (natural protein)”, the percent of DNAHX particles in a two-headed dynein complex (open conformation) amounted to 27% and the percent of DNAHX particles in phi particle dynein was found to be 13%.
